Measured values reported in patent US20020151590, “Compositions and methods for regulating circadian rhythyms” (published 2002).

Key:
[1] = biological target: CLOCK:BMAL1 heterodimer (Homo sapiens, UniProt O15516;O00327 O15516:1-846,O00327:1-626); test: EMSA; 150 mM KCl, 20 mM Tris-HCl pH 7.6, 5 mM MgCl2, 200 ng poly(dI-dC), 4 C; RXRa/RARa with 9cisRA/tRA tested as inhibitors; gel result not shown in text; conditions: tags: reticulocyte lysate (TNT), CMX plasmids; label: 32P
Description: (§1) A double-stranded [γ³²P]dATP-labeled consensus oligonucleotide, […] […] The samples were loaded directly onto 4% polyacrylamide-TBE gels to separate MOP4/CLOCK:BMAL1 bound DNA from free DNA. The gels were dried and analyzed on a PhosphorImager.

[2] = biological target: MOP4 (NPAS2):BMAL1 heterodimer (Homo sapiens, UniProt Q99743;O00327 Q99743:1-824,O00327:1-626); test: as above; conditions: tags: reticulocyte lysate (TNT), CMX plasmids; label: 32P
Sequence of MOP4 (NPAS2):BMAL1 heterodimer (Q99743 whole entry, chain 1 of 2): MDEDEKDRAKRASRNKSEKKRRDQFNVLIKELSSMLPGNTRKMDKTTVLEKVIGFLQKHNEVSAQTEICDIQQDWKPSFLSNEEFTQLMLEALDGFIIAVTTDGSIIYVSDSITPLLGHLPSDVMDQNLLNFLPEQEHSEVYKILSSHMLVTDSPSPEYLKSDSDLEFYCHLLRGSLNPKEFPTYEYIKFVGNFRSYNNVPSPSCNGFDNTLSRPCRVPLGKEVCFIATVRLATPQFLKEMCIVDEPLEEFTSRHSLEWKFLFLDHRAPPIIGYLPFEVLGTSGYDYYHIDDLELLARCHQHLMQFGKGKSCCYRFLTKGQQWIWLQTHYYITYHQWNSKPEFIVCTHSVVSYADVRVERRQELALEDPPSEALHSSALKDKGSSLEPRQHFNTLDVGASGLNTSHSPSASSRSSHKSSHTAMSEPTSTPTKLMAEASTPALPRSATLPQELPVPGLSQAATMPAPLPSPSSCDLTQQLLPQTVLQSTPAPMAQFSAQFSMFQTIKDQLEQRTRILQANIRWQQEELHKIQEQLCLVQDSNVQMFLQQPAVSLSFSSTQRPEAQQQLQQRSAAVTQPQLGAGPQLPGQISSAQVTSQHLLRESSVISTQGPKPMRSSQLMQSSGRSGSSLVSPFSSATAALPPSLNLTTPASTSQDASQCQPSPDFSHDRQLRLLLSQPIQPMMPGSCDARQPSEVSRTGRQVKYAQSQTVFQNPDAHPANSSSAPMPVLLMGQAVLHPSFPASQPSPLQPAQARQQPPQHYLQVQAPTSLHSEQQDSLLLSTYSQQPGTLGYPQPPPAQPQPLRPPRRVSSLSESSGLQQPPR
Sequence of MOP4 (NPAS2):BMAL1 heterodimer (O00327 whole entry, chain 2 of 2): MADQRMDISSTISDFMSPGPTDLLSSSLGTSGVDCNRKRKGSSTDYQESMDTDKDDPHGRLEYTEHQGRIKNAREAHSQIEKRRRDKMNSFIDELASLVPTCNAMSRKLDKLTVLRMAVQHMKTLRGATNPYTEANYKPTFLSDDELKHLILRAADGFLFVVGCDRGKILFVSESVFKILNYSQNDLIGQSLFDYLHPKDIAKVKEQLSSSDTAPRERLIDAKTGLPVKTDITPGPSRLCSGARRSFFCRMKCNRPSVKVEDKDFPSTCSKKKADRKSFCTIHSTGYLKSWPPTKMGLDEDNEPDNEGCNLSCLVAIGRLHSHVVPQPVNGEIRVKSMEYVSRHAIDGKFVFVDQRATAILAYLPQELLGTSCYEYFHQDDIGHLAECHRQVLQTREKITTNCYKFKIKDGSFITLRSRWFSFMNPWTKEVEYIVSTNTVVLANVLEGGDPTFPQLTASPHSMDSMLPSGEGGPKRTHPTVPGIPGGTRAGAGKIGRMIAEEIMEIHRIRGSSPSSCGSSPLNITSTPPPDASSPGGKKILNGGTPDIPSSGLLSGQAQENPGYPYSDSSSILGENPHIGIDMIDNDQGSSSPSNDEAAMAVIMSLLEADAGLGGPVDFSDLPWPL
Description: as §1

Sequence of CLOCK:BMAL1 heterodimer (O15516 whole entry, chain 1 of 2): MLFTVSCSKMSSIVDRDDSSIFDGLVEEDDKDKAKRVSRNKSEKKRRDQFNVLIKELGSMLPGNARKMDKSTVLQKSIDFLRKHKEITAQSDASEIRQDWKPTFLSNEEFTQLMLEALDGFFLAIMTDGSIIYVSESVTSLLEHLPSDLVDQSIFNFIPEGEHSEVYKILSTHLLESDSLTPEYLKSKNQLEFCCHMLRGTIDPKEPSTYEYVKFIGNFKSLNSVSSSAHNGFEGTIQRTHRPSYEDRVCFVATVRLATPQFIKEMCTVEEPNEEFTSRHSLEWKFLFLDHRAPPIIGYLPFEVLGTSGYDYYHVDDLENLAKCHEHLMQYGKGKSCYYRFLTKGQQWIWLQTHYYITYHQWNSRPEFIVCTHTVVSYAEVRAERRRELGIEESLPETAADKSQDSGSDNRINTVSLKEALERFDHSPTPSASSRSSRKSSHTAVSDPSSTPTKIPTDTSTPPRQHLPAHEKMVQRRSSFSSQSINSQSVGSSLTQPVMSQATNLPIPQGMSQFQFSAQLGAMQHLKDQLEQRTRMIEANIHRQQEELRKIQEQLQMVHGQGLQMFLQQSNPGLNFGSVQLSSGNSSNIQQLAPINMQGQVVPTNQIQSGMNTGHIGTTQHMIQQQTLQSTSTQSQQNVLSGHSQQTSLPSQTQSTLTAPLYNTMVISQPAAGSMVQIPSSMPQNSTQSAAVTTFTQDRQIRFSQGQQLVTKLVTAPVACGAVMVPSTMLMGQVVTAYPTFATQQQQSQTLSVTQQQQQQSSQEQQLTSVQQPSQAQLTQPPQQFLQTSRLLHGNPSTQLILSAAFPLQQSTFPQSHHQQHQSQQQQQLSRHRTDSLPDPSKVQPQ
Sequence of CLOCK:BMAL1 heterodimer (O00327 whole entry, chain 2 of 2): as the sequence (O00327 whole entry, chain 2 of 2) above

B1: E-box consensus oligonucleotide (dsDNA)
DNA 1: GGGACACGTGACCC
DNA 2: GGGTCACGTGTCCC
- binding result [1]: binds
- binding result [2]: binds
